Each block holds one molecule with its values, some of them ahead of it.
T1: sclerostin (Homo sapiens (Human), UniProt Q9BQB4 24-213)
T1 construct: also called SOST; Beer
T1 sequence: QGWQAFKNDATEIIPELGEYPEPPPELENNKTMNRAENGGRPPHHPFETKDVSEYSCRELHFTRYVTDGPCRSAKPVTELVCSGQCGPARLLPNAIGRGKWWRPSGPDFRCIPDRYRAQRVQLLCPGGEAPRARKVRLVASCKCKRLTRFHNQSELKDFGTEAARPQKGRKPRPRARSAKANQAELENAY

B1: DAN (ligand)
chain: AAPPPINKLALFPDKSAWCEAKNITQIVGHSGCEAKSIQNRACLGQCFSYSVPNTFPQSTESLVHCDSCMPAQSMWEIVTLECPGHEEVPRVDKLVEKILHCSCQACGKEPSHEGLSVYVQGEDGPGSQPGTHPHPHPHPHPGGQTPEPEDPPGAPHTEEEGAED
B2: BMP-6 (ligand, UniProt P22004 382-513, looked up)
chain: QQSRNRSTQSQDVARVSSASDYNSSELKTACRKHELYVSFQDLGWQDWIIAPKGYAANYCDGECSFPLNAHMNATNHAIVQTLVHLMNPEYVPKPCCAPTKLNAISVLYFDDNSNVILKKYRNMVVRACGCH
notes: also called bone morphogenic protein 6
B3: BMP receptor II-FC fusion protein (Fc fusion, not shown: a dimerising Fc or GST; small tags and cut ends)
chain: SQNQERLCAFKDPYQQDLGIGESRISHENGTILCSKGSTCYGLWEKSKGDINLVKQGCWSHIGDPQECHYEECVVTTTPPSIQNGTYRFCCCSTDLCNVNFTENFPPPDTTPLSPPHSFNRDET
notes: also called BMPR-II

Legend:
[1] = biological target: B2; assay: ELISA-based competition: receptor-Fc against coated sclerostin for BMP-6 (11 nM)
[2] = biological target: B2; assay: ELISA-based competition: 10-fold molar excess of receptor-Fc against coated sclerostin for BMP-6
[3] = biological target: B2; assay: ELISA-based competition: DAN against coated sclerostin for BMP-6
[4] = biological target: T1, sclerostin; assay: ELISA, BMP-6 on a sclerostin-coated surface (300 ng/well)
Method: (§1) A 10-fold molar excess of the BMP receptor was sufficient to reduce binding of sclerostin to BMP-6 by approximately 50%. This competition was also observed with a BMP receptor II-FC fusion protein (IC₅₀=36 nM) and DAN (IC₅₀=43 nM).

[5] = biological target: B2; assay: ELISA-based competition: receptor-Fc against coated sclerostin for BMP-6
Method: as §1

IC50 [1]: 114 nM
percent reduction of sclerostin binding to BMP-6 at 10-fold molar excess [2]: 50%
Molecule: BMP receptor IA (FC fusion construct)

Molecule: B1
IC50 [3]: 43 nM

Molecule: B2
Kd [4]: 3.4 nM

Molecule: B3
IC50 [5]: 36 nM

Source: patent publication US20120321636A1 (UCB, published 2012)
